The source of these data is PMC12153317 (mBio, 2025).

The target of the assay is HA head of A/American black duck/New Brunswick/00464/2010(H4N6) (Influenza A virus A/American black …, strain). In words: crystal structure. To be noted: both partners purified.

B1: S8V1-157 Fab (crystallization) (Fab, V domains shown)
VH: EVQLVQSGAEVKKPGASVKVSCKVSGYRLTALSMHWVRQAPGKGLEWMGGFDPEEDETIYAQNFQGRVTLTEDTSTDTVYMELSSLRSEDTGVYYCATLMGANPFDYWGQGTLIIVSG
VL: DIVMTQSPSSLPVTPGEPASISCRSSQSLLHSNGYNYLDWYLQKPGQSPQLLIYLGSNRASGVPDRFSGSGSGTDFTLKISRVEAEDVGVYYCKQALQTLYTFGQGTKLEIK
notes: source: 293F, transient transfection, purified (TALON resin, Superdex 200)
For B1, the binding result is reported as “binds”.
